Target: His-tagged wildtype EGFR kinase domain (human, UniProt P00533 696-1022, limits assumed)
Assay: cell-based or functional assay

SYLNGVMPPTQSFAPDPKYVSSKAL [25-mer peptide corresponding to residues 340-364 in Mig-6]
inhibition of activated EGFR kinase (IC50): ~100 µM

From patent US20100120678A1 (University of California, published 2010)
